One series deals with GDPMK (Escherichia coli, UniProt P37128, E100A). The series is described as follows: X-ray crystal structure, […] Å. In kind it is binding. Particulars: Mg2+; active site; co-crystallised at pH 8.5.
Substrate in the series “phosphate release”: Nc1nc2c(ncn2[C@@H]2O[C@H](COP(=O)(O)OP(=O)(O)O[C@H]3O[C@H](CO)[C@@H](O)[C@H](O)[C@@H]3O)[C@@H](O)[C@H]2O)c(=O)[nH]1
The series is described as follows: phosphate release. The format is biochemical, Escherichia coli. Conditions: Mg2+, pH 8.5, 37 °C.

The series “SEC” concerns the molecule itself. Kind of series: SEC. For orientation: In gel filtration, larger molecules generally elute earlier.
The series “crystal structure” deals with the molecule itself. The series is described as follows: crystal structure.

Changes are numbered by the printed parent chain. Numbers in names are those of the source.

Chain of GDPMK (P37128 whole entry E100A): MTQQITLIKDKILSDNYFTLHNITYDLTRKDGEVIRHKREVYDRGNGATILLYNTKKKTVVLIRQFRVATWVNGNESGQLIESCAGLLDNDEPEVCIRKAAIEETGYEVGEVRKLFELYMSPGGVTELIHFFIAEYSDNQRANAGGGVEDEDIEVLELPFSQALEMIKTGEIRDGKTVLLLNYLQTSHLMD

In the case of `Nc1nc2c(ncn2[C@@H]2O[C@H](COP(=O)(O)OP(=O)(O)O[C@H]3O[C@H](CO)[C@@H](O)[C@H](O)[C@@H]3O)[C@@H](O)[C@H]2O)c(=O)[nH]1` [GDP-mannose], at GDPMK, the “X-ray crystal structure, 2.45 Å” value was “The structure of the complex of the GDPMK E100A mutant with GDP-mannose and magnesium”.

B1: GDPMK, Nudix GDP-mannose hydrolase from E. coli (product of the gene yffH), wild type (enzyme, UniProt P37128 1-191, looked up)
chain: MTQQITLIKDKILSDNYFTLHNITYDLTRKDGEVIRHKREVYDRGNGATILLYNTKKKTVVLIRQFRVATWVNGNESGQLIESCAGLLDNDEPEVCIRKEAIEETGYEVGEVRKLFELYMSPGGVTELIHFFIAEYSDNQRANAGGGVEDEDIEVLELPFSQALEMIKTGEIRDGKTVLLLNYLQTSHLMD
Usually Km stands for the substrate concentration at which the rate is half of its maximum. In general, kcat refers to the maximal rate divided by the concentration of active sites. A word on the stoichiometry N: it is the number of molecules, sites or subunits per partner or assembly. In the case of B1, in the series “phosphate release”, the Michaelis-Menten constant (Km) was 659 ± 65 µM and the turnover number (kcat) stood at 90.2 ± 6.7 s⁻¹. The “stoichiometry N” value in the series “SEC” stood at 2.

B2: GDPMK (Escherichia coli K-12; E149A) (protein)
chain: B1 chain with E149A
For B2, in “phosphate release”, the Michaelis constant (Km) turned out to be 555 ± 85 µM and the catalytic constant (kcat) turned out to be 80.6 ± 6.3 s⁻¹.

B3: GDPMK (Escherichia coli K-12; R44S) (protein)
chain: B1 chain with R44S
On to B3, for which the turnover number (kcat) in the series “phosphate release” was 1.69 ± 0.12 s⁻¹.

B4: GDPMK (Escherichia coli K-12; E151A) (protein)
chain: B1 chain with E151A
B4: in the series “phosphate release”, the Km turned out to be 594 ± 140 µM and the kcat was determined as 21.3 ± 4.6 s⁻¹.

B5: GDPMK E100A mutant (enzyme, E. coli, UniProt P37128 1-191, looked up)
chain: B1 chain with E100A
Turning to B5, the binding result in the series “crystal structure” was “binds”.

B6: GDPMK (Escherichia coli K-12; K176A) (protein)
chain: B1 chain with K176A
In the case of B6, in “phosphate release”, the kcat came out at 0.11 ± 0.04 s⁻¹.

The record behind these values is publication PMC3164844 (Proteins, 2011).
